Experimental data published in US11395853B2, “Biomimetic drug delivery of an immunomodulatory agent for the treatment of ocular conditions” (University of Pittsburgh-Of the Commonwealth System of …, priority 2016, dated 2022).

What was measured:
[1] = test system: ConA-induced DED mice; test: Aqueous tear production, phenol red cotton thread, ConA-induced DED (Example 1); type: in vivo, Balb/c mice; conditions: one week after ConA into lacrimal gland; MPs 0.5 mg/20 μl co-injected with ConA; soluble CCL22 2.5 μg in 20 μl; anti-GITR 500 μg i.p. 5 days prior
Protocol: (§1) Fabrication of Microparticles—Poly (lactic-co-glycolic) acid (PLGA) microparticles encapsulating recombinant mouse CCL22 (R&D Systems, Minneapolis Minn.) were made according to a previously reported water-oil-water double emulsion technique. Glowacki, A. J. et al. Proc. Natl. Acad. Sci. U.S.A 110, 18525-30 (2013). Briefly, 200 mg of RG502H poly(D,L-lactide-co-glycolide) polymer (Sigma Aldrich, St. Louis, Mo.) was dissolved in 4 ml of dichloromethane and vortexed. Then […], of an aqueous solution containing 5 μg of recombinant mouse CCL22 and 2 mg of BSA (Sigma Aldrich, St. Louis, Mo.) with […] NaCl was pipetted into the mixture of polymer and dichloromethane. […] Release media (supernatant) was sampled periodically and CCL22 concentrations were quantified using an enzyme-linked immunosorbent assay (ELISA) (R&D Systems, Minneapolis, Minn.). […] Measurement of Tear Production—Aqueous tear production was measured with phenol red cotton threads (Oasis Medical, San Dimas, Calif.). Thread was placed in the lateral canthus of the eye for a period of 60 seconds, and wetting was measured in millimeters using a dissecting microscope (Olympus SZX10, Waltham, Mass.). […] The surface of the cornea was evaluated using a dissecting microscope with a fluorescent excitation lamp (Olympus SZX10, Waltham, Mass.). […]

[2] = test system: ConA-induced DED mice; test: Corneal permeability, corneal fluorescein staining score, ConA-induced DED (Example 1); type: in vivo, Balb/c mice; conditions: one week after ConA into lacrimal gland; MPs or soluble CCL22 co-injected with ConA; anti-GITR 500 μg i.p. 5 days prior
Protocol: as §1

B1: Soluble CCL22: recombinant mouse CCL22 chemokine injected in solution with ConA at 2.5 μg in 20 μl (protein, UniProt O88430 25-92, looked up)
C-C motif chemokine 22: GPYGANVEDSICCQDYIRHPLPSRLVKEFFWTSKSCRKPGVVLITVKNRDICADPRQVWVKKLLHKLS
Q: Which aqueous tear production [1] does the source give for B1 here?
A: Its aqueous tear production is “unable to prevent loss of tear production”.

Q: And the “corneal fluorescein staining (corneal permeability)” value [2]?
A: Its value is “central punctate fluorescein staining was observed”.
